Legend:
Type in all cases: biochemical
[1] = Enzyme activity with pNP-acylesters of different chain length; settings: substrate pNP-caproate (C6); 4 mM, 45° C., pH 7.2
Procedure: Enzyme activity tests were performed by incubating the enzyme with 4 mM substrate at 45° C. in 100 mM Tris-HCl buffer at pH 7.2, unless otherwise indicated. The reaction was measured at 410 nm. One unit is defined as the amount of enzyme catalyzing the appearance of 1 μmol of free p-nitrophenol/min. Enzyme activity against pNP-acylesters (butyrate, valerate, caproate, octanoate, decanoate and palmitate) was tested under the above conditions. […] The enzyme according to SEQ ID NO: 6 converted pNP-caproate with a specific activity of 80.0 U/mg.

[2] = Titration assay with triglycerides; settings: 10 mM, 37° C., pH 7.0
Procedure: (§1) Enzyme activities on the substrates triacetin, tripropionin, tributyrin, tricaprylene, trilaurin and vinyl-substrates (vinyl-acetate, ˜propionate, ˜butyrate, ˜caproate, ˜caprylate and ˜laurate) were determined using a standard titration assay with minor modifications. Tests were performed with a Methrom 718 STAT potentiometric titrator (Herisau, Switzerland) and by using 10 mM NaOH for titration. The substrates at 10 mM concentration were emulsified in 20 ml reaction buffer containing 2 mM Tris/HCl pH 7.0. After addition of 7.5 μg of the purified enzyme the NaOH consumption was recorded at a reaction temperature of 37° C. One unit was defined as the amount of enzyme that released […] of fatty acid per min.

[3] = Titration assay with vinyl acid esters; settings: 10 mM, 37° C., pH 7.0
Procedure: as §1

[4] = Enantioselectivity, GC analysis of hydrolysis of acetic acid esters
Procedure: To assay the activity of the enzymes on a range of acetic acid esters gas chromatography was used. The samples were analyzed for the production of chiral alcohols by the gas chromatograph GC-17A (Shimadzu, Duisburg, Germany) equipped with FID detector and CP-Chirasil-DEX CB (Chrompack (Middelburg, Netherlands), 25 m×0.25 mm ID) at a helium flow of 1.3 ml/min. The temperature programme included: 5 min at 60° C., followed by an increase of 5° C. per min until 190° C. was reached. For the GC analysis, activity-tests were run in 1 M Tris buffered solutions and using 10 mM substrates dissolved in DMSO as 0.1 M stock solutions. 2 μg of the enzyme were added and tests incubated over night before the corresponding alcohols could be extracted by treatment with acetic acid ethyl ester and analyzed by GC.

[5] = substrate Acetic acid ester of tetrahydronaphthylamin
[6] = substrate acetic acid ester of (+/−)-1-octin-3-ol, 10 mM, over night
[7] = substrate acetic acid ester of phenylethylamin
[8] = substrate cis-3,5-diacetoxy-1-cyclopenten
[9] = substrate cis-3,5-diacetoxy-1-cyclopenten, conversion for the preferred enantiomer
[10] = substrate isopropylidenglycerolacetate (rac.), values marked ^1: substrate conversion after 12 h

B1: EstCL1: recombinant enzyme having carboxyl esterase activity, amino acid sequence SEQ ID NO: 6, family IV of bacterial lipolytic enzymes (protein)
chain: MTDPYVRPDVAMFLAFLNNAPGPKLHELSAPEARMVQNAMRDMADAPVGELAVMRDLEIPGPAGTIMARLYDKQPGRGSGPAMVFFHGGGFVIGNIHTYEPFCAEVARLLDLPVISVEYRLGPESPFPAAFEDCEAAARWVASKPEALGFDVSGLILSGDSAGGNLTISTSMALRDVAAGVPVIAQMPIYPVVTLDPDWPSMRDFADGYLLTAELIQWFGDGHGASGEDYRTHPLDFDQSGMPPTVITTASLDPLRDQGMAYFEKLKAAGVRAEHISAEGNIHGHINVRKGIPSSQQDVEGYVTALTAMLAGVMAEA
modifications: metagenomic sequence
- specific activity [1]: 80.0 U/mg
- specific activity ([2]; substrate triacetin (C2)): 120 U/mg
- specific activity ([2]; substrate tributyrin (C4)): 330 U/mg
- specific activity ([2]; substrate tricaprylin (C8)): 0 U/mg
- specific activity ([2]; substrate trilaurin (C12)): 0 U/mg
- specific activity ([2]; substrate tripropionin (C3)): 200 U/mg
- specific activity ([3]; substrate vinyl acetate (C2)): 0 U/mg
- specific activity ([3]; substrate vinyl butyrate (C4)): 550 U/mg
- specific activity ([3]; substrate vinyl caprylate (C8)): 80 U/mg
- specific activity ([3]; substrate vinyl laurinate (C12)): 0 U/mg
- specific activity ([3]; substrate vinyl propionate (C3)): 173 U/mg
- conversion % of 1.e [4, 5]: 0%
- conversion % of 2.e [4, 5]: 0%
- conversion % of 1.e [4, 6]: 0%
- conversion % of 2.e [4, 6]: 0%
- conversion % of 1.e [4, 7]: 0%
- conversion % of 2.e [4, 7]: 0%
- conversion % of 2.e [4, 8]: 0%
- ee % [4, 8]: 100%
- conversion % of 1.e [4, 9]: 100%
- ee % ([4]; substrate isopropylidenglycerolacetate (rac.)): 100%
- conversion % of 1.e [4, 10]: 0%
- conversion % of 2.e [4, 10]: 35%
- conversion % of 1.e ([4]; substrate menthylacetate, 1. enantiomer (+)): 0%
- conversion % of 2.e ([4]; substrate menthylacetate, 2.e. (−)): 0%

B2: EstCL2: recombinant enzyme having carboxyl esterase activity, amino acid sequence SEQ ID NO: 8, family V of bacterial lipolytic enzymes (protein)
chain: MKRKTIFSRLSFAALGLFAVATIALDAKAATTCPAGAICRYEEAPGSYSGNGPYTVRSYTLSRLQTPGGATVYYPSNARPPFSGVVFTPPYTGIQSMFAAWGPFFASHGIVMVTMDTNTTLDTVDQRASQQKQVLDALKRENTRSASALYGKLNTARLGAVGWSMGGGATWINSAEYAGLKSAMSLAGHNLTTVDIDSRGGNTRIPTLILNGALDLTYLGGLGQSDGVYNNIRSGVPKVFYEVSSAGHFAWGSPTSANRAVAGIALAFHKTFLDGDTRWVSYIKRPSSDVSKWATASLPQ
modifications: metagenomic sequence
- conversion % of 2.e [4, 8]: 0%
- conversion % of 1.e [4, 9]: 100%
- ee % ([4]; substrate cis-3,5-diacetoxy-1-cyclopenten, listed as EstCl2): 76.3%
- ee % ([4]; substrate cis-3,5-diacetoxy-1-cyclopenten, listed as SEQ ID NO: 8): 76%

Source: patent US8956838B2, “Carboxyl esterase polypeptides” (B.R.A.I.N., priority 2006, dated 2015)
